Laboratory results reported in patent US20250043302A1, “MUTATED HYDROXYPHENYLPYRUVATE DIOXYGENASE POLYPEPTIDE, AND CODING GENE AND USE THEREOF” (BEIJING DABEINONG BIOTECHNOLOGY CO., LTD., priority 2021, published 2025).

Experiments:
Format in all cases: in vivo
[1] = test system: Arabidopsis thaliana T1 plants; experiment: Mesotrione tolerance of transgenic Arabidopsis thaliana T1 plants (spray, bleached leaf area grade, damage score); design: Scores: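 damage score 0-100 computed as Σ(N×S)/(T×M)×100 over grades 0-3 with higher meaning more damage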; conditions: Table 12; for Classification and statistics of the grade of pesticide damage Grade 0: number of plants at grade 0; for Classification and statistics of the grade of pesticide damage Grade 1: number of plants at grade 1; for Classification and statistics of the grade of pesticide damage Grade 2: number of plants at grade 2; for Classification and statistics of the grade of pesticide damage Grade 3: number of plants at grade 3; for Scores: pesticide damage score
Method in brief: (§1)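 Read-out: per-plant damage grade 0–3 from proportion of bleached leaf area at 7 DAT (1 <50%, 2 >50%, 3 100%). Plants were T1 transformants, glufosinate-selected, plus wild-type CK, sprayed 18 days post-sowing. Rates: topramezone 25–200, isoxaflutole 35–280, mesotrione 52.5–420 g ai/ha.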

[2] = test system: Arabidopsis thaliana T1 plants; experiment: Topramezone tolerance of transgenic Arabidopsis thaliana T1 plants (spray, bleached leaf area grade, damage score); conditions: Table 10; for Classification and statistics of the grade of pesticide damage Grade 0: number of plants at grade 0; for Classification and statistics of the grade of pesticide damage Grade 1: number of plants at grade 1; for Classification and statistics of the grade of pesticide damage Grade 2: number of plants at grade 2; for Classification and statistics of the grade of pesticide damage Grade 3: number of plants at grade 3; for Scores: pesticide damage score
Method in brief: as §1

[3] = test system: Arabidopsis thaliana T1 plants; experiment: Isoxaflutole tolerance of transgenic Arabidopsis thaliana T1 plants (spray, bleached leaf area grade, damage score); conditions: Table 11; for Classification and statistics of the grade of pesticide damage Grade 0: number of plants at grade 0; for Classification and statistics of the grade of pesticide damage Grade 1: number of plants at grade 1; for Classification and statistics of the grade of pesticide damage Grade 2: number of plants at grade 2; for Classification and statistics of the grade of pesticide damage Grade 3: number of plants at grade 3; for Scores: pesticide damage score;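 as to Scores: Weighted damage index from 0 to 100 where higher means more damage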
Method in brief: as §1

Molecule	Resistance evaluation ([1]; mesotrione 210 g ai/ha (2×))	Classification and statistics of the grade of pesticide damage Grade 0 ([1]; mesotrione 210 g ai/ha (2×))	Classification and statistics of the grade of pesticide damage Grade 1 ([1]; mesotrione 210 g ai/ha (2×))	Classification and statistics of the grade of pesticide damage Grade 2 ([1]; mesotrione 210 g ai/ha (2×))	Classification and statistics of the grade of pesticide damage Grade 3 ([1]; mesotrione 210 g ai/ha (2×))	Scores ([1]; mesotrione 210 g ai/ha (2×))	Resistance evaluation ([1]; mesotrione 420 g ai/ha (4×))	Classification and statistics of the grade of pesticide damage Grade 0 ([1]; mesotrione 420 g ai/ha (4×))	Classification and statistics of the grade of pesticide damage Grade 1 ([1]; mesotrione 420 g ai/ha (4×))	Classification and statistics of the grade of pesticide damage Grade 2 ([1]; mesotrione 420 g ai/ha (4×))	Classification and statistics of the grade of pesticide damage Grade 3 ([1]; mesotrione 420 g ai/ha (4×))	Scores ([1]; mesotrione 420 g ai/ha (4×))	Resistance evaluation ([2]; topramezone 100 g ai/ha (4×))	Classification and statistics of the grade of pesticide damage Grade 0 ([2]; topramezone 100 g ai/ha (4×))	Classification and statistics of the grade of pesticide damage Grade 1 ([2]; topramezone 100 g ai/ha (4×))	Classification and statistics of the grade of pesticide damage Grade 2 ([2]; topramezone 100 g ai/ha (4×))	Classification and statistics of the grade of pesticide damage Grade 3 ([2]; topramezone 100 g ai/ha (4×))	Scores ([2]; topramezone 100 g ai/ha (4×))	Resistance evaluation ([2]; topramezone 200 g ai/ha (8×))	Classification and statistics of the grade of pesticide damage Grade 0 ([2]; topramezone 200 g ai/ha (8×))	also measured
HPPDm-2-02: nucleotide sequence encoding Avena sativa HPPD with A111T+F372A+F383W; vector DBN11783 (nucleic acid, HPPDm-2-02 Nucleotide Sequence, vector DBN11783) DNA: ATGCCACCTACTCCAGCTACAGCTACTGGTGCTGCTGCTGCTGCCGTTACTCCTGAGCACGCTGCCAGGTCATTCCCCAGGGTGGTTCGCGTGAACCCCAGATCTGATAGGTTCCCAGTTCTGAGCTTCCACCATGTTGAGCTGTGGTGCGCTGATGCTGCTTCTGCTGCTGGCAGGTTCTCTTTCGCTCTTGGTGCTCCACTCGCTGCTAGATCTGATCTGTCTACAGGAAATAGCGCTCATGCCTCACTCCTGCTTCGCTCAGGTGCTTTGGCCTTCCTCTTCACCGCTCCATATGCTCCCCCACCTCAGGAGGCTGCTACTGCTGCTACTACAGCCTCCATTCCAAGCTTCTCAGCTGATGCCGCTAGAACCTTCGCTGCTGCTCATGGACTTGCCGTGAGGTCTGTTGGTGTTCGCGTGGCTGATGCTGCTGAGGCTTTCAGAGTTTCCGTTGCCGGCGGAGCTAGGCCAGCTTTCGCTCCTGCTGATTTGGGACATGGTTTCGGCCTGGCTGAGGTTGAGCTTTACGGTGACGTGGTTCTCCGCTTCGTGTCTTACCCAGATGAGACTGACCTGCCTTTCCTTCCCGGCTTCGAGAGAGTTTCCTCTCCTGGTGCCGTGGATTACGGCCTGACAAGGTTCGACCACGTGGTTGGAAACGTTCCCGAGATGGCTCCAGTGATCGATTACATGAAGGGCTTCCTTGGATTCCATGAGTTCGCCGAGTTCACTGCTGAGGACGTGGGAACCACTGAGTCCGGTTTGAACTCTGTGGTTCTCGCCAACAATTCTGAGGCTGTTTTGCTCCCTCTGAATGAGCCTGTGCATGGAACCAAGAGGAGAAGCCAGATTCAAACTTACCTGGAGTACCACGGTGGCCCTGGAGTTCAGCATATCGCCCTTGCTTCTAATGATGTGTTGCGCACACTCAGAGAGATGCGCGCCAGAACCCCCATGGGAGGTTTCGAGTTCATGGCCCCACCACAGGCTAAGTACTACGAGGGCGTTAGAAGGATTGCTGGAGACGTGTTGAGCGAGGAGCAGATCAAGGAGTGCCAAGAGCTGGGTGTTCTTGTGGATAGGGATGACCAGGGCGTTCTGCTTCAAATTGCCACTAAGCCAGTGGGCGACCGCCCTACATTCTGGCTTGAGATGATTCAAAGAATCGGCTGCATGGAGAAGGATGAGGTTGGACAGGAGTACCAAAAGGGCGGATGCGGTGGCTTCGGAAAGGGTAACTTCAGCGAGTTGTTCAAGTCAATCGAGGACTACGAGAAGAGCCTCGAGGTGAAGCAGTCAGTGGTTGCCCAAAAGTCCTGA	Highly resistant	16	0	0	0	0	Highly resistant	14	2	0	0	4	Highly resistant	16	0	0	0	0	Highly resistant	16	Classification and statistics of the grade of pesticide damage Grade 1 ([2]; topramezone 200 g ai/ha (8×)): 0; Classification and statistics of the grade of pesticide damage Grade 2 ([2]; topramezone 200 g ai/ha (8×)): 0; Classification and statistics of the grade of pesticide damage Grade 3 ([2]; topramezone 200 g ai/ha (8×)): 0; Scores ([2]; topramezone 200 g ai/ha (8×)): 0; Resistance evaluation ([3]; isoxaflutole 140 g ai/ha (2×)): Highly resistant; Classification and statistics of the grade of pesticide damage Grade 0 ([3]; isoxaflutole 140 g ai/ha (2×)): 16; Classification and statistics of the grade of pesticide damage Grade 1 ([3]; isoxaflutole 140 g ai/ha (2×)): 0; Classification and statistics of the grade of pesticide damage Grade 2 ([3]; isoxaflutole 140 g ai/ha (2×)): 0; Classification and statistics of the grade of pesticide damage Grade 3 ([3]; isoxaflutole 140 g ai/ha (2×)): 0; Scores ([3]; isoxaflutole 140 g ai/ha (2×)): 0; Resistance evaluation ([3]; isoxaflutole 280 g ai/ha (4×)): Highly resistant; Classification and statistics of the grade of pesticide damage Grade 0 ([3]; isoxaflutole 280 g ai/ha (4×)): 12; Classification and statistics of the grade of pesticide damage Grade 1 ([3]; isoxaflutole 280 g ai/ha (4×)): 3; Classification and statistics of the grade of pesticide damage Grade 2 ([3]; isoxaflutole 280 g ai/ha (4×)): 1; Classification and statistics of the grade of pesticide damage Grade 3 ([3]; isoxaflutole 280 g ai/ha (4×)): 0; Scores ([3]; isoxaflutole 280 g ai/ha (4×)): 10
HPPDm-1-02: nucleotide sequence encoding Avena sativa HPPD with A107 deletion+F372A+F383W; vector DBN11780 (nucleic acid, HPPDm-1-02 Nucleotide Sequence, vector DBN11780) DNA: ATGCCACCTACTCCAGCTACAGCTACTGGTGCTGCTGCTGCTGCCGTTACTCCTGAGCACGCTGCCAGGTCATTCCCCAGGGTGGTTCGCGTGAACCCCAGATCTGATAGGTTCCCAGTTCTGAGCTTCCACCATGTTGAGCTGTGGTGCGCTGATGCTGCTTCTGCTGCTGGCAGGTTCTCTTTCGCTCTTGGTGCTCCACTCGCTGCTAGATCTGATCTGTCTACAGGAAATAGCGCTCATGCCTCACTCCTGCTTCGCTCAGGTGCTTTGGCCTTCCTCTTCACCGCTCCATATGCTCCCCCACCTCAGGAGGCTACTGCTGCTGCTACAGCCTCCATTCCAAGCTTCTCAGCTGATGCCGCTAGAACCTTCGCTGCTGCTCATGGACTTGCCGTGAGGTCTGTTGGTGTTCGCGTGGCTGATGCTGCTGAGGCTTTCAGAGTTTCCGTTGCCGGCGGAGCTAGGCCAGCTTTCGCTCCTGCTGATTTGGGACATGGTTTCGGCCTGGCTGAGGTTGAGCTTTACGGTGACGTGGTTCTCCGCTTCGTGTCTTACCCAGATGAGACTGACCTGCCTTTCCTTCCCGGCTTCGAGAGAGTTTCCTCTCCTGGTGCCGTGGATTACGGCCTGACAAGGTTCGACCACGTGGTTGGAAACGTTCCCGAGATGGCTCCAGTGATCGATTACATGAAGGGCTTCCTTGGATTCCATGAGTTCGCCGAGTTCACTGCTGAGGACGTGGGAACCACTGAGTCCGGTTTGAACTCTGTGGTTCTCGCCAACAATTCTGAGGCTGTTTTGCTCCCTCTGAATGAGCCTGTGCATGGAACCAAGAGGAGAAGCCAGATTCAAACTTACCTGGAGTACCACGGTGGCCCTGGAGTTCAGCATATCGCCCTTGCTTCTAATGATGTGTTGCGCACACTCAGAGAGATGCGCGCCAGAACCCCCATGGGAGGTTTCGAGTTCATGGCCCCACCACAGGCTAAGTACTACGAGGGCGTTAGAAGGATTGCTGGAGACGTGTTGAGCGAGGAGCAGATCAAGGAGTGCCAAGAGCTGGGTGTTCTTGTGGATAGGGATGACCAGGGCGTTCTGCTTCAAATTGCCACTAAGCCAGTGGGCGACCGCCCTACATTCTGGCTTGAGATGATTCAAAGAATCGGCTGCATGGAGAAGGATGAGGTTGGACAGGAGTACCAAAAGGGCGGATGCGGTGGCTTCGGAAAGGGTAACTTCAGCGAGTTGTTCAAGTCAATCGAGGACTACGAGAAGAGCCTCGAGGTGAAGCAGTCAGTGGTTGCCCAAAAGTCCTGA	Highly resistant	16	0	0	0	0	Highly resistant	15	1	0	0	2	Highly resistant	16	0	0	0	0	Highly resistant	16	Classification and statistics of the grade of pesticide damage Grade 1 ([2]; topramezone 200 g ai/ha (8×)): 0; Classification and statistics of the grade of pesticide damage Grade 2 ([2]; topramezone 200 g ai/ha (8×)): 0; Classification and statistics of the grade of pesticide damage Grade 3 ([2]; topramezone 200 g ai/ha (8×)): 0; Scores ([2]; topramezone 200 g ai/ha (8×)): 0; Resistance evaluation ([3]; isoxaflutole 140 g ai/ha (2×)): Highly resistant; Classification and statistics of the grade of pesticide damage Grade 0 ([3]; isoxaflutole 140 g ai/ha (2×)): 16; Classification and statistics of the grade of pesticide damage Grade 1 ([3]; isoxaflutole 140 g ai/ha (2×)): 0; Classification and statistics of the grade of pesticide damage Grade 2 ([3]; isoxaflutole 140 g ai/ha (2×)): 0; Classification and statistics of the grade of pesticide damage Grade 3 ([3]; isoxaflutole 140 g ai/ha (2×)): 0; Scores ([3]; isoxaflutole 140 g ai/ha (2×)): 0; Resistance evaluation ([3]; isoxaflutole 280 g ai/ha (4×)): Highly resistant; Classification and statistics of the grade of pesticide damage Grade 0 ([3]; isoxaflutole 280 g ai/ha (4×)): 12; Classification and statistics of the grade of pesticide damage Grade 1 ([3]; isoxaflutole 280 g ai/ha (4×)): 4; Classification and statistics of the grade of pesticide damage Grade 2 ([3]; isoxaflutole 280 g ai/ha (4×)): 0; Classification and statistics of the grade of pesticide damage Grade 3 ([3]; isoxaflutole 280 g ai/ha (4×)): 0; Scores ([3]; isoxaflutole 280 g ai/ha (4×)): 8
